The test concerns the target biotinylated γTuRC-mBFP-AviTag (human | human (endogenous in HeLa-Kyoto)) (UniProt Q9BSJ2). The test is described as follows: TIRF microscopy; γTuRC nucleation assay: biotinylated γTuRC-mBFP-AviTag held on the glass by NeutrAvidin (1-2.5 nM used), 11-15 µM tubulin, 1 mM GTP, 1 mM ATP, with or without mScarlet-KIF2A (20-100 nM), mCherry-MCAK or spastin (100 nM); 33°C, 20-30 min.

Sequence of microtubules polymerised from pig brain tubulin (P02550 whole entry): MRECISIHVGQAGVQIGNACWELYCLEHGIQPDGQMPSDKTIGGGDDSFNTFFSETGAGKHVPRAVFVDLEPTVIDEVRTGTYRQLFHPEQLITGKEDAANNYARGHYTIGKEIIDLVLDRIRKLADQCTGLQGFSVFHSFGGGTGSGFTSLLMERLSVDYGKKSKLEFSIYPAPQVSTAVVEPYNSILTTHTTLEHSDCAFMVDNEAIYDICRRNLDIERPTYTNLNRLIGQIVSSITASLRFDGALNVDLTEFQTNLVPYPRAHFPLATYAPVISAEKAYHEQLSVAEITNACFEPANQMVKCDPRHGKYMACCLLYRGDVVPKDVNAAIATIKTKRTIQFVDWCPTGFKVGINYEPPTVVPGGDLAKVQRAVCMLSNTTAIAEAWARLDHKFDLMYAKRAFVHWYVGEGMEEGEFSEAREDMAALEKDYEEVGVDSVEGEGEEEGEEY
Sequence of microtubules polymerised from pig brain tubulin (Q767L7 whole entry): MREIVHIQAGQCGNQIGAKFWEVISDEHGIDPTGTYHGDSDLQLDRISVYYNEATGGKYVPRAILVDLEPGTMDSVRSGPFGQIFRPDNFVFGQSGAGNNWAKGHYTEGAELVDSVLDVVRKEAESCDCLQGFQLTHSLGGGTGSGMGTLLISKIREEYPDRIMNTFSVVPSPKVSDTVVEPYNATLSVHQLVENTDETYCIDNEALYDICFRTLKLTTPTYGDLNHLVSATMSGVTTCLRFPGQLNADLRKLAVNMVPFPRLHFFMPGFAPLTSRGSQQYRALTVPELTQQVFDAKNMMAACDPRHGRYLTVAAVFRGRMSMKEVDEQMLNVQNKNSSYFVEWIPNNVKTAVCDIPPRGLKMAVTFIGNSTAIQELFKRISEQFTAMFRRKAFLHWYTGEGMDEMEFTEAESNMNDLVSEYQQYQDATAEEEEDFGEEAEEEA
Sequence of biotinylated γTuRC-mBFP-AviTag (human | human (endogenous in HeLa-Kyoto)) (Q9BSJ2 whole entry, looked up): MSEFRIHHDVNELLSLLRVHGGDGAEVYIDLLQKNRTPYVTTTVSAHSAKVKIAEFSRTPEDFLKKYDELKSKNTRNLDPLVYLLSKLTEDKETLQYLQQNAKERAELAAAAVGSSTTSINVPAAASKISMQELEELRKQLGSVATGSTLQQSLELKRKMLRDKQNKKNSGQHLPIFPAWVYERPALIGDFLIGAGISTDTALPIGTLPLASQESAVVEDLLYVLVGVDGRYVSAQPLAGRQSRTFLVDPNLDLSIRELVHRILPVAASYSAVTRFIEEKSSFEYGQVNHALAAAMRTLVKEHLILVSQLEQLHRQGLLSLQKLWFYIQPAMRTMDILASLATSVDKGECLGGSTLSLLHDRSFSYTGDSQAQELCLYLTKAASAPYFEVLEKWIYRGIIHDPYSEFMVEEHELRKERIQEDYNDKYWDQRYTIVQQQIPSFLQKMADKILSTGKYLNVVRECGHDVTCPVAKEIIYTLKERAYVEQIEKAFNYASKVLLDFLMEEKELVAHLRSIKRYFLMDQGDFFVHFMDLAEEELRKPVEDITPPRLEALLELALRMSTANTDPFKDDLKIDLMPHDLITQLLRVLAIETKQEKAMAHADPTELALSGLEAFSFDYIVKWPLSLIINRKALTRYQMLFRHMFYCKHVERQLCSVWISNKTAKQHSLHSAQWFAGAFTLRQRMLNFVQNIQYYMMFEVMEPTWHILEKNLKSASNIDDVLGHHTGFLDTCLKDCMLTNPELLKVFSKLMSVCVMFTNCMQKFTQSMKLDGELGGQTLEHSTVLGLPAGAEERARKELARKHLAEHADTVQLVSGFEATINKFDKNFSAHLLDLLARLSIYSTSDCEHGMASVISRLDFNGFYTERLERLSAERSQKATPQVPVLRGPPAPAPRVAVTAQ

Take “microtubules polymerised from pig brain tubulin (from UniProt P02550 1-451; Q767L7 1-444) (complex)”: the percent of microtubules released from immobilized γTuRC (with 20 nM mScarlet-KIF2A alone) was 2%; the percent of microtubules released from immobilized γTuRC (with 100 nM spastin alone) is 1%; the percent of microtubules released from immobilized γTuRC (with 100 nM spastin and 20 nM mScarlet-KIF2A) came to 40%.

For the origin of these results see publication PMC10450741.
